Assay results taken from doi:10.1101/340133.
Changes are numbered by the printed parent chain. Values belong to the binder of their own block, whether it stands above or below them.

Legend:
[1] = molecular target: dynamic microtubules polymerized from αβ-tubulin on GMPCPP seeds (porcine) (UniProt P02554); assay: TIRF microscopy of dynamic microtubules
[2] = molecular target: dynamic microtubules polymerized from αβ-tubulin on GMPCPP seeds (porcine) (UniProt P02554); assay: single molecule TIRF microscopy of dynamic microtubules

Sequence of UniProt P02554 (P02554 whole entry, looked up): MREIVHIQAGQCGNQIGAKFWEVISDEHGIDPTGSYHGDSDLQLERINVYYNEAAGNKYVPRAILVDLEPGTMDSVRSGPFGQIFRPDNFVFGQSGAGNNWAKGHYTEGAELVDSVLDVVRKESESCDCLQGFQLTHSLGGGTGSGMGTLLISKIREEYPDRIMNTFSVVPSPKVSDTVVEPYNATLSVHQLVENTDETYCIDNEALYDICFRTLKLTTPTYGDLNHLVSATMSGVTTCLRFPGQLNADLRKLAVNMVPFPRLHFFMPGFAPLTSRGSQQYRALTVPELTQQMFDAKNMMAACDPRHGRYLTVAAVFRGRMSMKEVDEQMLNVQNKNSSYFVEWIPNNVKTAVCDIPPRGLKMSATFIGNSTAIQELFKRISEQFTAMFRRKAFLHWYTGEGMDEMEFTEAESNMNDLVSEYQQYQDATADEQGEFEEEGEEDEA

B2: SNAPf-tagged TOG1M Alp14 (residues 1-690) (domain or fragment)
chain: MSQDQEEDYSKLPLESRIVHKVAKVRLSAYEECSKSFSLSADGSDNCFELWNNQSELWKSVLTDSNVAAQEAGTAAFVAYCRFSDPSHLLKAREISVLSISEKCLTSPAAGTRENALEALMLLVEADSAAPVIESIIPSLSARSPKVIASNVAAIASLVEQFGAKVIPSKMIIPHISNLFGHADKNVRKEASRLTVNIYAWTGDPLKDLLFKDLRPVQTKELESLFAELPTEPPKQTRFLKSQQPTSEPNVETQVEEQPALENEESEPEPSDDQFDLVEEVDVLPNVDPNLETLMASSKWKDRKEALDKLLPVLSQPKIKDNDFFNLVAILTKSVSKDANIMVVINAAHCIQAMAKGLRSNFSKYASTSINALLERSKEKKANVIESLSSAMDAVLATSSLDDLAELIASFAGNKNPQIKSSCFSLFSRSFSNMTSLPSKFTVDTCAKACVPGVSDTFEPVRSAAAEALGVLMKLVGERAINQYLSPLDDIRKSKIRSFYETATVKAKAPTKKSKVKPSKQEESKVVVPSNAKAVKKSVVPSSPVVPSPRKATNKSLSMDVSKGNAFENGPLLPRPTTRPVSRGLSRGTSSSLQQKVKASTPLNSGALNETVQNLKNMELDDPAPQPAKHSRVDRYEHPKVLEDNDSTISSLESLKRENEELREQLKVEHEENISMQKQLSELKGELNTL
modifications: SNAP-Surface Atto 488 covalently attached to the SNAPf tag
dwell time at MT plus-ends [2]: 57.4 s

B3: C-terminally SNAPf-tagged wt-Alp14 (residues 1-690) (domain or fragment)
chain: B2 chain with A23W, A109R, A200R
modifications: SNAP-Surface Atto 488 covalently attached to the SNAPf tag (5-10 nM labeled diluted into 190-195 nM non-labeled)
dwell time at MT plus-ends [2]: 129 s

Second part, the binder after the results:

residence ratio at MT plus-ends (average) [1]: 89.4%
B1: wt-Alp14 (residues 1-690) with C-terminal mNeonGreen (domain or fragment)
chain: B2 chain with A23W, A109R, A200R

residence ratio at MT plus-ends (average) [1]: 72.4%
B4: TOG1 inactivated Alp14 (TOG1M), residues 1-690, with C-terminal mNeonGreen (domain or fragment)
chain: B2 chain
